From patent US9956260

Key:
Experiment in all cases: cell-based or functional assay
[1] = biological target: T1, caspase-3 (human) (UniProt P42574)
T1 sequence: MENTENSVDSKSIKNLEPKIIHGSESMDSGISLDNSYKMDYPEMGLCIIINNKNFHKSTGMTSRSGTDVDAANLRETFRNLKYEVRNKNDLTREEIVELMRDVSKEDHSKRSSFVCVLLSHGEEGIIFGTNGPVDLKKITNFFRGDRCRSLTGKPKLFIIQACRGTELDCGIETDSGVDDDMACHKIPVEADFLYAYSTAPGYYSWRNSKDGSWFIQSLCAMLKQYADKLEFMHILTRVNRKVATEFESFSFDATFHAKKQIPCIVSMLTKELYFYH

[2] = biological target: HIV-1 gp41 of NL4-3 (WT lab-adapted virus) (HIV-1 (NL4-3))
[3] = biological target: HIV-1 gp41 of WEAU 16-8 (primary virus) (HIV-1 (primary isolate WEAU 16-8))

Substance | decrease in CD4 T-cell death in HIV-infected HLACs [1] [%] | percentage of viable CD4 T cells in HIV-1-infected HLACs after 3 days (flow cytometry; inhibitors 20 µM each) [1] [%] | viral infection of HLACs (p24gag FLAQ assay, day 9) [2] [µg/mL] | viral infection of HLACs (p24gag FLAQ assay, day 9) (µg/ml (printed 'gi/ml')) [2] | viral infection of HLACs (p24gag FLAQ assay, day 9) [3] [µg/mL]
Z-DEVD-FMK (peptide) | 50 | 50 |  |  | 
enfuvirtide (T20) (peptide) |  |  | > 2 | 10 | 0.1
